The values that follow come from the supplement of paper PMC12042874.

± gives the uncertainty stated by the source.

This series in a line: amyloid nucleation score (Sup35N fusion, yeast selection) (log enrichment); library NNK3; higher = more nucleation; inactive = no reads after selection. Put shortly: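 Peptides of 20 random codons, each fused to Sup35N, were expressed in psi-negative yeast. Cells were induced with 100 μM copper sulfate for 24 hours and grown 7 days at 30°C on medium lacking adenine and uracil, and plasmid inserts before and after selection were Illumina-sequenced. Nucleation scores are DiMSum log enrichments of output over input reads, centred on the mode score of non-aggregating sequences, and sequences under 100 input reads were excluded.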

For ENCAWSRIIRRFNECNTLV, the amyloid nucleation score result was “inactive”.
With AVHFGLYFLMRVITMC, the amyloid nucleation score entry was “inactive”.
For YSSLW the value was “inactive”.
For RLYNTIFPSKKIWYKKLEGC the value was “inactive”; for MSYMMSSTPSVFMACLGDS, “inactive”; for STRRSYNPCYWSGLYSSIGH, “inactive”.
For GASGCLSWHFGLIV the value was “inactive”.
With VLLDMFRNFVWNSRVVFNGS, the amyloid nucleation score result was “inactive”.
Turning to IAGMCGRGWREPLVERSGKD, the amyloid nucleation score result is “inactive”.
For LVVLFGPNFLIPVGLRIAVN the value was 0.245 ± 0.37.
ANSSRDMCSLLVLVRGTQ showed an amyloid nucleation score of -0.385 ± 0.96.
For MPNLAFSG the value was 0.006 ± 0.3; for SAGMNMLYMYECKSSSMGFC, “inactive”; for CVYNRLNMF, -0.296 ± 0.28.
For FNQFHFKCSFNQCCYLNQAA the value was “inactive”; for RTSAHGNYFSQLESLRKMML, “inactive”.
For DFDLLSFIRSDVIPCVCSKG the value was “inactive”.
As for LPIKMGMLLSICDLLG, the amyloid nucleation score entry was “inactive”.
For NNRLRGHF the value was “inactive”.
For the substance FLSYLSSIPAPYLNGSAGTT, the amyloid nucleation score entry was “inactive”.
For FKLVGDIYYQYVYALPRNKL the value was “inactive”; for FFYNDVETVCNVICPKVYSD, “inactive”.
For WMDNAI the value was “inactive”.
For ATYAGSVITGLCEDTLYRNC the value was “inactive”; for HLLIHANF, 1.25 ± 0.14; for RNSLFLLPSTCSVYIWCFS, 2.8 ± 0.081.
With FLKCGRSVPGV, the amyloid nucleation score result is “inactive”.
For SLKSNTVCDNL the value was “inactive”; for GDLSS, “inactive”.
With CVMLVAVQGR, the amyloid nucleation score result is “inactive”.
For EFMAGNDSRIQCSRIRGCYG the value was “inactive”; for YWMNERLTSSKYDAGR, “inactive”; for MAEPTL, “inactive”.
GFVFQVYPQFVWVPPTTSRQ: the amyloid nucleation score came out at 1.2 ± 0.18.
Take TVRVYIHIYHIGFLGPMRSE: the amyloid nucleation score came to 0.889 ± 0.22.
For ATEDPKLESGCVAEIVPFRG the value was -0.481 ± 1.4; for LKTSNRR, “inactive”.
For SICMNNLCVSWTMPYT the value was 1.5 ± 0.11; for CYWKLYCGNEYYGVSFMGVL, “inactive”; for NFHQMW, “inactive”.
For VSMSLDCM the value was “inactive”.
With TTGLISSNGVTG, the amyloid nucleation score result is “inactive”.
As for YSTRPSYFLDLMLYIDTWVQ, the amyloid nucleation score entry was “inactive”.
For IVYRVSVFSWLVMDPDDK the value was “inactive”; for YHWSS, “inactive”; for LAFFTHNIYF, 1.97 ± 0.1.
In turn, RYSSNRLTLMWDCIEGGSAW registered an amyloid nucleation score of 1.03 ± 0.14.
On to VYGASTLSAHMWR, for which the amyloid nucleation score result was “inactive”.
For LNCDIVFELL the value was “inactive”; for GDQFQAMHVWNLPDVDYYVH, “inactive”; for MVHPDTRKRQTRGTG, “inactive”.
As for LKLRSRITNINILDVRYWIC, the amyloid nucleation score result was “inactive”.
For FDDPHGTVTCED the value was -0.176 ± 0.98.
For VMCVFLLYI the value was 1.08 ± 0.11; for NESLIKVCSALILRKNMCGP, “inactive”; for NICMAI, “inactive”.
For LVFPVKKSLVCEGV the value was “inactive”.
Turning to HDNQFYVMLWAISAAYRLAS, the amyloid nucleation score entry is “inactive”.
For SLRPGLVLVIERNEFKS the value was “inactive”; for SFPKYRSNEDFPMDIRCNSS, “inactive”; for FKTKDIVRKDEANSHWSMSG, “inactive”.
In the case of LMPRTEI, the amyloid nucleation score entry was “inactive”.
For FTKSREWGFMDKPAINWVSC the value was “inactive”; for MEVFFTSTFIGEFNRVCDTY, “inactive”.
With PSTDSINDV, the amyloid nucleation score result was “inactive”.
On to NSTNMDSFGIPLNRILWMLN, for which the amyloid nucleation score entry was “inactive”.
For DFRRANGEYWLTAAPMLIHT the value was 0.396 ± 0.28.
For DIQVFLTSSLQFIAEISVGG the value was “inactive”; for DFFLRVMYMKWNAPL, “inactive”.
Take STYGRMAR: the amyloid nucleation score entry was “inactive”.
Turning to GSSRRKKLTV, the amyloid nucleation score result is “inactive”.
For TAWLSSNFVSDRHCGYGSDC the value was “inactive”.
Turning to SYAGKGLTLQTHHDWRSGNG, the amyloid nucleation score result was “inactive”.
For FIHMCISFSGYFYDYCFNFN the value was “inactive”; for FHWYFAVSYTSYNMLSVWFV, “inactive”; for TIWAGMLASR, “inactive”.
For LAVVDCGYM the value was “inactive”; for YSCAKRTRVGTRSSRKVSLA, “inactive”.
Take EFSVLWMLQMDHSTLKFANS: the amyloid nucleation score result is “inactive”.
For PFSRTERRFYK the value was -0.463 ± 1.7; for TEHKVSFPHFVKYKPSLSSY, “inactive”.
For KPPGLNRHYTSCDMLSWALN the value was “inactive”; for VNIWLPKTPLQLKLNLPSSM, -0.829 ± 1.1.
For REVRTGLNLIPRRIVSNHTF the value was “inactive”; for GSSRQNY, “inactive”; for RKSSSVRFFEHCVVSDVWLV, “inactive”.
As for TDDAGMYDNRFQSMSDENTF, the amyloid nucleation score entry is “inactive”.
For IGKRIFKLCVMYGYYLHLNF the value was “inactive”; for KLYYIVRCEFCRDCKMAWGN, 1.29 ± 0.094.
For TLWMQILDAKYRSCSLRLRR the value was “inactive”; for VSGYNW, “inactive”.
As to MVFQYRYFSLLLVWSNCSGA, the amyloid nucleation score result is “inactive”.
For STKSSLRYNLEQLPDLLKIV the value was “inactive”.
MNLDNFLFKVCLGSCF: the amyloid nucleation score entry is “inactive”.
For TWQEVMNVQRTS the value was “inactive”; for NSFMCCRSWDTN, 2.71 ± 0.069; for KCYNKVWELMLAYG, “inactive”.
For MSCYVV the value was “inactive”.
Regarding CSCWTISLFCLWQTLRFPPI, the amyloid nucleation score is 0.438 ± 0.23.
